# Data reported in paper PMC12957837, “Crotonylation driving Streptococcus pneumoniae adaption and virulence” (Journal of Advanced Research, 2025).
# B1: pneumolysin (PLY), wild type (natural protein, Streptococcus pneumoniae D39, UniProt Q04IN8 1-471, looked up)
# chain: MANKAVNDFILAMNYDKKKLLTHQGESIENRFIKEGNQLPDEFVVIERKKRSLSTNTSDISVTATNDSRLYPGALLVVDETLLENNPTLLAVDRAPMTYSIDLPGLASSDSFLQVEDPSNSSVRGAVNDLLAKWHQDYGQVNNVPARMQYEKITAHSMEQLKVKFGSDFEKTGNSLDIDFNSVHSGEKQIQIVNFKQIYYTVSVDAVKNPGDVFQDTVTVEDLKQRGISAERPLVYISSVAYGRQVYLKLETTSKSDEVEAAFEALIKGVKVAPQTEWKQILDNTEVKAVILGGDPSSGARVVTGKVDMVEDLIQEGSRFTADHPGLPISYTTSFLRDNVVATFQNSTDYVETKVTAYRNGDLLLDHSGAYVAQYYITWDELSYDHQGKEVLTPKAWDRNGQDLTAHFTTSIPLKGNVRNLSVKIRECTGLAWEWWRTVYEKTDLPLVRKRTISIWGTTLYPQVEDKVEND
# notes: pneumolysin (PLY) of Streptococcus pneumoniae serotype 2 strain D39; also called wild-type PLY; WT PLY
# B2: crotonylated pneumolysin (PLY incubated with crotonyl-CoA) (natural protein, Streptococcus pneumoniae D39, UniProt Q04IN8 1-471, looked up)
# chain: MANKAVNDFILAMNYDKKKLLTHQGESIENRFIKEGNQLPDEFVVIERKKRSLSTNTSDISVTATNDSRLYPGALLVVDETLLENNPTLLAVDRAPMTYSIDLPGLASSDSFLQVEDPSNSSVRGAVNDLLAKWHQDYGQVNNVPARMQYEKITAHSMEQLKVKFGSDFEKTGNSLDIDFNSVHSGEKQIQIVNFKQIYYTVSVDAVKNPGDVFQDTVTVEDLKQRGISAERPLVYISSVAYGRQVYLKLETTSKSDEVEAAFEALIKGVKVAPQTEWKQILDNTEVKAVILGGDPSSGARVVTGKVDMVEDLIQEGSRFTADHPGLPISYTTSFLRDNVVATFQNSTDYVETKVTAYRNGDLLLDHSGAYVAQYYITWDELSYDHQGKEVLTPKAWDRNGQDLTAHFTTSIPLKGNVRNLSVKIRECTGLAWEWWRTVYEKTDLPLVRKRTISIWGTTLYPQVEDKVEND
# modifications: lysine crotonylation (Kcr); K171 and K442 are the Kcr sites the paper names
# notes: pneumolysin (PLY) of Streptococcus pneumoniae serotype 2 strain D39; also called crotonylated PLY; source: E. coli BL21 (λDE3), purified, then incubated with 125 µM crotonyl-CoA at 25 °C for 16 h
# B3: pneumolysin (PLY) K164R (natural protein, Streptococcus pneumoniae D39, UniProt Q04IN8 1-471, looked up)
# chain: MANKAVNDFILAMNYDKKKLLTHQGESIENRFIKEGNQLPDEFVVIERKKRSLSTNTSDISVTATNDSRLYPGALLVVDETLLENNPTLLAVDRAPMTYSIDLPGLASSDSFLQVEDPSNSSVRGAVNDLLAKWHQDYGQVNNVPARMQYEKITAHSMEQLKVRFGSDFEKTGNSLDIDFNSVHSGEKQIQIVNFKQIYYTVSVDAVKNPGDVFQDTVTVEDLKQRGISAERPLVYISSVAYGRQVYLKLETTSKSDEVEAAFEALIKGVKVAPQTEWKQILDNTEVKAVILGGDPSSGARVVTGKVDMVEDLIQEGSRFTADHPGLPISYTTSFLRDNVVATFQNSTDYVETKVTAYRNGDLLLDHSGAYVAQYYITWDELSYDHQGKEVLTPKAWDRNGQDLTAHFTTSIPLKGNVRNLSVKIRECTGLAWEWWRTVYEKTDLPLVRKRTISIWGTTLYPQVEDKVEND
# notes: pneumolysin (PLY) of Streptococcus pneumoniae serotype 2 strain D39 with K164R
# B4: pneumolysin (PLY) K442R (natural protein, Streptococcus pneumoniae D39, UniProt Q04IN8 1-471, looked up)
# chain: MANKAVNDFILAMNYDKKKLLTHQGESIENRFIKEGNQLPDEFVVIERKKRSLSTNTSDISVTATNDSRLYPGALLVVDETLLENNPTLLAVDRAPMTYSIDLPGLASSDSFLQVEDPSNSSVRGAVNDLLAKWHQDYGQVNNVPARMQYEKITAHSMEQLKVKFGSDFEKTGNSLDIDFNSVHSGEKQIQIVNFKQIYYTVSVDAVKNPGDVFQDTVTVEDLKQRGISAERPLVYISSVAYGRQVYLKLETTSKSDEVEAAFEALIKGVKVAPQTEWKQILDNTEVKAVILGGDPSSGARVVTGKVDMVEDLIQEGSRFTADHPGLPISYTTSFLRDNVVATFQNSTDYVETKVTAYRNGDLLLDHSGAYVAQYYITWDELSYDHQGKEVLTPKAWDRNGQDLTAHFTTSIPLKGNVRNLSVKIRECTGLAWEWWRTVYERTDLPLVRKRTISIWGTTLYPQVEDKVEND
# notes: pneumolysin (PLY) of Streptococcus pneumoniae serotype 2 strain D39 with K442R
# B5: pneumolysin (PLY) K171R (natural protein, Streptococcus pneumoniae D39, UniProt Q04IN8 1-471, looked up)
# chain: MANKAVNDFILAMNYDKKKLLTHQGESIENRFIKEGNQLPDEFVVIERKKRSLSTNTSDISVTATNDSRLYPGALLVVDETLLENNPTLLAVDRAPMTYSIDLPGLASSDSFLQVEDPSNSSVRGAVNDLLAKWHQDYGQVNNVPARMQYEKITAHSMEQLKVKFGSDFERTGNSLDIDFNSVHSGEKQIQIVNFKQIYYTVSVDAVKNPGDVFQDTVTVEDLKQRGISAERPLVYISSVAYGRQVYLKLETTSKSDEVEAAFEALIKGVKVAPQTEWKQILDNTEVKAVILGGDPSSGARVVTGKVDMVEDLIQEGSRFTADHPGLPISYTTSFLRDNVVATFQNSTDYVETKVTAYRNGDLLLDHSGAYVAQYYITWDELSYDHQGKEVLTPKAWDRNGQDLTAHFTTSIPLKGNVRNLSVKIRECTGLAWEWWRTVYEKTDLPLVRKRTISIWGTTLYPQVEDKVEND
# notes: pneumolysin (PLY) of Streptococcus pneumoniae serotype 2 strain D39 with K171R
# How the values were obtained:
# [1] = molecular target: SPD_0839 (Streptococcus pneumoniae, UniProt A0A0H2ZP99); assay: isothermal titration calorimetry; type: binding
# SPD_0839, sequence (A0A0H2ZP99 entry or part of it): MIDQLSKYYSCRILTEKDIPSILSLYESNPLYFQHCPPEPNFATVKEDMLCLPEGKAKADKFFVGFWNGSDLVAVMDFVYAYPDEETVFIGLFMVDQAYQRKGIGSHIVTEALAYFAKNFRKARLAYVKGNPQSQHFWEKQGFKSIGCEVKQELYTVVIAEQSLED
# [2] = molecular target: the molecule itself; assay: nanoparticle tracking analysis; NanoSight NS300, samples diluted with PBS, 25 °C; particle concentration of PLY and its mutants
# [3] = molecular target: the molecule itself; assay: SDS-PAGE without β-mercaptoethanol + Western blot; 1 µg Ply or mutant incubated with 125 µM crotonyl-CoA at 25 °C for 16 h; SDS loading buffer without β-mercaptoethanol, 55 °C for 10 min; 6 % SDS-PAGE; anti-Ply Western blot
# [4] = molecular target: the molecule itself; assay: native gel or EMSA; native gel of purified PLY and its mutants; oligomeric and monomeric forms marked by arrows
molecule,measurement,setting,value
CC(=O)SCCNC(=O)CCNC(=O)[C@H](O)C(C)(C)COP(=O)(O)OP(=O)(O)OC[C@H]1O[C@@H](n2cnc3c(N)ncnc32)[C@H](O)[C@@H]1OP(=O)(O)O [AcCoA],Kd,[1],10.4 µM
C/C=C/C(=O)SCCNC(=O)CCNC(=O)[C@H](O)C(C)(C)COP(=O)(O)OP(=O)(O)OC[C@H]1O[C@@H](n2cnc3c(N)ncnc32)[C@H](O)[C@@H]1OP(=O)(O)O [CrCoA],Kd,[1],1 µM
B1,binding result,[2],binds
B2,binding result,[3],binds
B3,binding result,[4],binds
B4,binding result,[2],binds
B5,binding result,[2],binds
